From paper PMC6882493 (Emerging Microbes & Infections, 2019)
Where two headings read alike, the source gives them in different places.

Experiments:
[1] = system: C[C@@H](O)[C@H]1C(=O)N2C(C(=O)O)=C(SCCN=CN)C[C@H]12; assay: purified protein; details: 50 mM MES pH 7.0, 30 °C, 100 μM ZnCl2, 100 μg/ml BSA
[2] = system: C[C@@H](O)[C@H]1C(=O)N2C(C(=O)O)=C(S[C@@H]3CN[C@H](C(=O)N(C)C)C3)[C@H](C)[C@H]12; assay: purified protein; details: 50 mM MES pH 7.0, 30 °C, 100 μM ZnCl2, 100 μg/ml BSA
[3] = system: C[C@@H](O)[C@H]1C(=O)N2C(C(=O)O)=C(S[C@@H]3CN[C@H](C(=O)Nc4cccc(C(=O)O)c4)C3)[C@H](C)[C@H]12; assay: purified protein; details: 50 mM MES pH 7.0, 30 °C, 100 μM ZnCl2, 100 μg/ml BSA
PNGM-1 [4] = details: read-out: PNGM-1^a; 50 mM MES pH 7.0, 30 °C, 100 μM ZnCl2, 100 μg/ml BSA; footnote: identical to data from authors' earlier reference 13; cited from earlier work
Target sequence in this assay (Z9H0G7B495 1-372 limits assumed): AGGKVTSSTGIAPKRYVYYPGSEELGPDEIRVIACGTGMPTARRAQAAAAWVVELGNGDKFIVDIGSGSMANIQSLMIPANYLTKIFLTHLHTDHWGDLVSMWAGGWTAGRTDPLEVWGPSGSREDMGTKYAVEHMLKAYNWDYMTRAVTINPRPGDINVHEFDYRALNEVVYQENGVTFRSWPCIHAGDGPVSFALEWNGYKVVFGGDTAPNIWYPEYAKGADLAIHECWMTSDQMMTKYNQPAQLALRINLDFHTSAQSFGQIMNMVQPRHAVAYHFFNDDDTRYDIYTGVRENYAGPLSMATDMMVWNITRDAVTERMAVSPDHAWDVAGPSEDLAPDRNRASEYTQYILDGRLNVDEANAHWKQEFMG

PNGM-1 [5] = details: read-out: PNGM-1^a; 50 mM MES pH 7.0, 30 °C, 100 μM ZnCl2, 100 μg/ml BSA; footnote: identical to data from authors' earlier reference 13; cited from earlier work; remark: listed apart in the source
Target sequence in this assay (Z9H0G7B495 1-372 limits assumed): as above

PNGM-1 [6] = system: PNGM-1
Target sequence in this assay (Z9H0G7B495 1-372 H256A limits assumed): as the sequence (Z9H0G7B495 1-372 limits assumed) above, with H256A counted along it

PNGM-1 [7] = details: read-out: PNGM-1^a; 50 mM MES pH 7.0, 30 °C, 100 μM ZnCl2, 100 μg/ml BSA; footnote: identical to data from authors' earlier reference 13; cited from earlier work; remark: listed apart in the source
Target sequence in this assay (Z9H0G7B495 1-372 limits assumed): as the sequence (Z9H0G7B495 1-372 limits assumed) above

PNGM-1 [8] = details: read-out: PNGM-1^a; 50 mM MES pH 7.0, 30 °C, 100 μM ZnCl2, 100 μg/ml BSA; footnote: identical to data from authors' earlier reference 13; cited from earlier work; remark: listed apart in the source
Target sequence in this assay (Z9H0G7B495 1-372 limits assumed): as above

PNGM-1 [9] = system: PNGM-1; remark: listed apart in the source
Target sequence in this assay (Z9H0G7B495 1-372 H256A limits assumed): as the sequence (Z9H0G7B495 1-372 limits assumed) above, with H256A counted along it

PNGM-1 [10] = system: PNGM-1; remark: listed apart in the source
Target sequence in this assay (Z9H0G7B495 1-372 H256A limits assumed): as the sequence (Z9H0G7B495 1-372 limits assumed) above, with H256A counted along it

PNGM-1 [11] = details: read-out: PNGM-1^a; 50 mM MES pH 7.0, 30 °C, 100 μM ZnCl2, 100 μg/ml BSA; footnote: identical to data from authors' earlier reference 13; cited from earlier work; remark: listed apart in the source
Target sequence in this assay (Z9H0G7B495 1-372 limits assumed): as the sequence (Z9H0G7B495 1-372 limits assumed) above

PNGM-1 [12] = details: read-out: PNGM-1^a; 50 mM MES pH 7.0, 30 °C, 100 μM ZnCl2, 100 μg/ml BSA; footnote: identical to data from authors' earlier reference 13; cited from earlier work; remark: listed apart in the source
Target sequence in this assay (Z9H0G7B495 1-372 limits assumed): as above

GOB-18 (Elizabethkingia meningoseptica)
Km [1]: 4.8 ± 0.1 µM
kcat [1]: 6.188 ± 0.003 s⁻¹
kcat/Km [1]: 1.3e+06 ± 200000 M⁻¹ s⁻¹
Km [2]: 5.7 ± 0.1 µM
kcat [2]: 8.568 ± 0.001 s⁻¹
kcat/Km [2]: 1.5e+06 ± 100000 M⁻¹ s⁻¹
Km [3]: 6.3 ± 0.1 µM
kcat [3]: 6.882 ± 0.002 s⁻¹
kcat/Km [3]: 1.1e+06 ± 200000 M⁻¹ s⁻¹

C[C@@H](O)[C@H]1C(=O)N2C(C(=O)O)=C(S[C@@H]3CN[C@H](C(=O)N(C)C)C3)[C@H](C)[C@H]12 [meropenem]
Km (PNGM-1 [4]): 1900 ± 100 nM

C[C@@H](O)[C@H]1C(=O)N2C(C(=O)O)=C(S[C@@H]3CN[C@H](C(=O)Nc4cccc(C(=O)O)c4)C3)[C@H](C)[C@H]12 [ertapenem]
Km (PNGM-1 [5]): 1900 ± 100 nM

CO[C@@]1(NC(=O)Cc2cccs2)C(=O)N2C(C(=O)O)=C(COC(N)=O)CS[C@@H]21 [cefoxitin]
Km (PNGM-1 [6]): 3.8 ± 0.1 µM
Km (PNGM-1 [7]): 4.3 ± 0.1 µM

CO/N=C(\C(=O)N[C@@H]1C(=O)N2C(C(=O)O)=C(COC(C)=O)CS[C@H]12)c1csc(N)n1 [cefotaxime]
Km (PNGM-1 [8]): 3.3 ± 0.1 µM
Km (PNGM-1 [9]): 3.1 ± 0.1 µM

CC(C)(O/N=C(\C(=O)N[C@@H]1C(=O)N2C(C(=O)[O-])=C(C[n+]3ccccc3)CS[C@H]12)c1csc(N)n1)C(=O)O [ceftazidime]
Km (PNGM-1 [10]): 15.4 ± 0.1 µM
Km (PNGM-1 [11]): 15.9 ± 0.2 µM

AIM-1 (Pseudomonas aeruginosa)
Km [1]: 3.8 ± 0.1 µM
kcat [1]: 11.128 ± 0.0001 s⁻¹
kcat/Km [1]: 2.9e+06 ± 200000 M⁻¹ s⁻¹
Km [2]: 4.6 ± 0.1 µM
kcat [2]: 15.409 ± 0.0001 s⁻¹
Km [3]: 5.0 ± 0.1 µM
kcat [3]: 12.376 ± 0.0001 s⁻¹
kcat/Km [3]: 2.5e+06 ± 200000 M⁻¹ s⁻¹

FEZ-1 (Fluoribacter gormanii)
Km [1]: 3.5 ± 0.1 µM
kcat [1]: 0.763 ± 0.001 s⁻¹
kcat/Km [1]: 220000 ± 10000 M⁻¹ s⁻¹
Km [2]: 4.2 ± 0.1 µM
kcat [2]: 0.773 ± 0.001 s⁻¹
kcat/Km [2]: 180000 ± 10000 M⁻¹ s⁻¹
Km [3]: 4.6 ± 0.1 µM
kcat [3]: 0.667 ± 0.001 s⁻¹

C[C@@H](O)[C@H]1C(=O)N2C(C(=O)O)=C(SCCN=CN)C[C@H]12 [imipenem]
Km (PNGM-1 [12]): 2000 ± 100 nM
